Experimental data: patent publication US8734776B2 (ZymoGenetics, Inc., priority 2003, dated 2014)
Where two headings read alike, the source gives them in different places.

Assays:
IL-28RA mRNA = test: Semi-quantitative RT-PCR of IL-28RA, IFNAR2 and CRF2-4 mRNA; assay type: cell-based, human; conditions: HepG2 cells + cytokine
Protocol: In order to further examine the mRNA distribution for IL-28RA, semi-quantitative RT-PCR was performed using the SDS 7900HT system (Applied Biosystems, CA). One-step RT-PCR was performed using 100 ng total RNA for each sample and gene-specific primers. A standard curve was generated for each primer set using Bjab RNA and all sample values were normalized to HPRT. The normalized values for IFNAR2 and CRF2-4 are also shown.

HCV replicon = conditions: replicon clones; IFNα at 10 IU/ml; cited from earlier work
Human Daudi cells = test: Daudi cell proliferation (Alamar Blue); assay type: cell-based; conditions: 1000 ng/ml to 0.5 ng/ml; 72 h
Protocol: Human Daudi cells were suspended in RPMI+10% FBS at 50,000 cells/milliliter and 5000 cells were plated per well in a 96 well plate. […] IL-29-CEE was used at a concentration range of from 1000 ng/ml to 0.5 ng/ml. […] IFN-α2a was used at a concentration range of from 62 ng/ml to 0.03 ng/ml. Cells were incubated for 72 h at 37° C. […] Plates were farther incubated at 37° C., 5% CO2, for 24 hours.

[1] = system: human peripheral blood mononuclear cells; test: Induction of IL-28A, IL-29, IL-28B RNA in PBMCs by poly I:C and viral infection; conditions: poly I:C 100 μg/ml, 15 h
[2] = system: encephelomyocarditis virus; test: Antiviral assay: cytopathic effect in HeLa cells; assay type: cell-based, human
[3] = system: encephelomyocarditis virus; test: Antiviral assay: cytopathic effect in L929 cells; assay type: cell-based, mouse
[4] = system: human Daudi B lymphoid cells; test: Induction of interferon-stimulated genes in Daudi cells (RT-PCR); assay type: cell-based; conditions: 72 hours, conditioned medium from Sf9 cells
Excerpt: Interaction of type 1 interferons with their specific receptor leads to induction of a number of genes responsible for their antiviral/antiproliferative activity. These include 2′-5′ oligoadenylate synthetase (2-OAS), double-stranded RNA dependent Pkr kinase (Pkr), phospholipid scramblase, and intercellular adhesion molecule-1 (ICAM-1). Induction of genes with as yet unknown function, such as a 56 kDa interferon stimulated gene product (ISG-56k), also occurs. […] Conditioned medium from Sf9 cells infected with wild-type baculovirus was used as a negative control. Following treatment cells were collected and lysed for isolation of total RNA. One microgram of total RNA was converted to cDNA using reverse transcriptase and used as a template for polymerase chain reaction using oligonucleotide primers specific for the human interferon-stimulated genes described above. Oligonucleotide primers for human […] (G3PDH) were used as a non-interferon stimulated gene control.

BVDV = BVDV CPE inhibition assay in MDBK cells; assay type: cell-based; conditions: MDBK bovine kidney cells
Protocol: IFNα and RIBAVIRIN® were used as positive controls. Test sample were added at the time of viral infection.

[5] = system: ISG gene expression (OAS, Pkr, Mx1); test: ISG gene induction in liver, spleen and blood of injected mice; assay type: in vivo, mouse; conditions: C57BL/6 mice; i.p or i.v; 10 μg-250 μg
Protocol: In addition, E. coli derived IL-29 was also tested in in vivo assays as described above using MetIL-29C172S-PEG and MetIL-29-PEG. At various time points and at different doses, ISG gene induction was measured in the blood, spleen and livers of the mice.
Mice were sacrificed at various time points (1 hr-48 hr). Spleens and livers were isolated from mice, and RNA was isolated. RNA was also isolated from the blood cells. The cells were pelleted and RNA isolated from pellets using RNAEasy®-kit (Qiagen). RNA was treated with DNase (Amicon) to rid RNA of any contaminating DNA. cDNA was generated using Perkin-Elmer RT mix (Perkin-Elmer). ISG gene induction was measured by real-time PCR using primers and probes specific for mouse OAS, Pkr and M×1. To obtain quantitative data, HPRT real-time PCR was duplexed with ISG PCR. A standard curve was calculated using known amounts of IFN-stimulated mouse PBLs. All data are shown as expression relative to internal HPRT expression.
Results shown are fold expression relative to HPRT gene expression. […] The data shown is the average expression from 5 different animals/group.
Data shown is fold expression over HPRT expression from livers of mice. Similar data was obtained from blood and spleens of mice.

adenovirus [6] = assay type: cell-based; conditions: A549 cells
parainfluenza virus [7] = assay type: cell-based; conditions: MA-104 cells
[8] = system: respiratory syncytial virus; assay type: cell-based; conditions: MA-104 cells
rhino virus [9] = assay type: cell-based
coxsackie virus [10] = assay type: cell-based; conditions: Coxsackie B4 virus, KB cells
influenza virus [11] = assay type: cell-based; conditions: Influenza (type A [H3N2])
vaccinia virus [12] = assay type: cell-based; conditions: Vero cells
west nile virus [13] = assay type: cell-based; conditions: Vero cells
dengue virus [14] = assay type: cell-based; conditions: Vero cells
[15] = system: venezuelan equine encephalitis virus; assay type: cell-based; conditions: Vero cells
pichinde virus [16] = assay type: cell-based
polio virus [17] = assay type: cell-based; conditions: Vero cells
adenovirus [18] = assay type: cell-based; conditions: A549 cells; remark: listed apart in the source
parainfluenza virus [19] = assay type: cell-based; conditions: MA-104 cells; remark: listed apart in the source
[20] = system: respiratory syncytial virus; assay type: cell-based; conditions: MA-104 cells; remark: listed apart in the source
rhino virus [21] = assay type: cell-based; remark: listed apart in the source
coxsackie virus [22] = assay type: cell-based; conditions: Coxsackie B4 virus, KB cells; remark: listed apart in the source
influenza virus [23] = assay type: cell-based; conditions: Influenza (type A [H3N2]); remark: listed apart in the source
vaccinia virus [24] = assay type: cell-based; conditions: Vero cells; remark: listed apart in the source
west nile virus [25] = assay type: cell-based; conditions: Vero cells; remark: listed apart in the source
dengue virus [26] = assay type: cell-based; conditions: Vero cells; remark: listed apart in the source
[27] = system: venezuelan equine encephalitis virus; assay type: cell-based; conditions: Vero cells; remark: listed apart in the source
pichinde virus [28] = assay type: cell-based; remark: listed apart in the source
polio virus [29] = assay type: cell-based; conditions: Vero cells; remark: listed apart in the source
OAS = OAS activity in serum and plasma of mice (RIA); conditions: C57BL/6 mice; i.v; 10 μg-250 μg
HHV-8 = HHV-8 replication in BCBL-1 cells (TaqMan PCR)
[30] = Maden-Darby Canine Kidney cells

For IFNα [reference compound], the “CRF2-4 mRNA normalized to HPRT” value (IL-28RA mRNA) was 3.05, the “IFNAR2 mRNA normalized to HPRT” value (IL-28RA mRNA) was 3.00 and the “IL-28RA mRNA normalized to HPRT” value (IL-28RA mRNA) was 2.61. The “reduction of the amount of HCV RNA compared to untreated control cell lines” value (HCV replicon) was 85%.

For “IL-29-CEE: IL-29 conjugated with glu tag”, the “effect on proliferation of Daudi cells” value (Human Daudi cells) was “no significant effect”.

For “polyinosinic acid-polycytidylic acid [poly I:C]”, the “amount of IL-28A, IL-29, IL-28B RNA” value [1] was “increased”.

B1: IL-28A: human IL-28A, previously designated zcyto20, SEQ ID NO:2 (protein, listed as Homo sapiens)
chain: MKLDMTGDCTPVLVLMAAVLTVTGAVPVARLHGALPDARGCHIAQFKSLSPQELQAFKRAKDALEESLLLKDCRCHSRLFPRTWDLRQLQVRERPMALEAELALTLKVLEATADTDPALVDVLDQPLHTLHHILSQFRACIQPQPTAGPRTRGRLHHWLYRLQEAPKKESPGCLEASVTFNLFRLLTRDLNCVASGDLCV
modifications: SIGNAL (1)...(25)
In the case of B1, the “Percentage Cytopathic Effect” value ([2]; relative CM concentration .008X) is reported as 10%, the “Percentage Cytopathic Effect” value ([2]; relative CM concentration .0156X) is reported as 2.5% and the “Percentage Cytopathic Effect” value ([2]; relative CM concentration .0325X) is reported as 5%. The “Percentage Cytopathic Effect” value ([2]; relative CM concentration .0625X) was 2.5%, the “Percentage Cytopathic Effect” value ([2]; relative CM concentration .125X) was 0% and the “Percentage Cytopathic Effect” value ([2]; relative CM concentration .25X) was 0%. The “Percentage Cytopathic Effect” value ([2]; relative CM concentration .5X) was 0%, the “Percentage Cytopathic Effect” value ([3]; relative CM conc. .008X) was 87% and the “Percentage Cytopathic Effect” value ([3]; relative CM conc. .0156X) was 87%. The “Percentage Cytopathic Effect” value ([3]; relative CM conc. .0325X) was 87%, the “Percentage Cytopathic Effect” value ([3]; relative CM conc. .0625X) was 87% and the “Percentage Cytopathic Effect” value ([3]; relative CM conc. .125X) was 87%. For the same molecule, the “Percentage Cytopathic Effect” value ([3]; relative CM conc. .25X) was 87%, the “Percentage Cytopathic Effect” value ([3]; relative CM conc. .5X) was 87% and the “induction of ICAM-1” value [4] was “No induction”. For the same molecule, the “induction of ISG-56k, Pkr, 2-5 OAS and phospholipid scramblase” value [4] was “clear induction”, the “IC50 inhibition of cell death induced by BVDV” value (BVDV) was 0.02 µg/mL and the “ISG gene expression (OAS, Pkr, Mx1) in the livers, spleen and blood of mice” value [5] was “did not induce ISG gene expression”. For the same molecule, the “EC50 Visual” value (adenovirus [6]) was >10 µg/mL, the “IC50 Visual” value (adenovirus [6]) was >10 µg/mL and the “EC50 Visual” value (parainfluenza virus [7]) was >10 µg/mL. For the same molecule, the “IC50 Visual” value (parainfluenza virus [7]) was >10 µg/mL, the “EC50 Visual” value [8] was >10 µg/mL and the “IC50 Visual” value [8] was >10 µg/mL. For the same molecule, the “EC50 Visual” value (rhino virus [9]; Rhino 2, KB cells) was >10 µg/mL, the “IC50 Visual” value (rhino virus [9]; Rhino 2, KB cells) was >10 µg/mL and the “EC50 Visual” value (rhino virus [9]; Rhino 9, HeLa cells) was >10 µg/mL. For the same molecule, the “IC50 Visual” value (rhino virus [9]; Rhino 9, HeLa cells) was >10 µg/mL, the “EC50 Visual” value (coxsackie virus [10]) was >10 µg/mL and the “IC50 Visual” value (coxsackie virus [10]) was >10 µg/mL. The “EC50 Visual” value (influenza virus [11]; [30]) was >10 µg/mL, the “IC50 Visual” value (influenza virus [11]; [30]) was >10 µg/mL and the “EC50 Visual” value (influenza virus [11]; Vero cells) was 0.1 µg/mL. For the same molecule, the “IC50 Visual” value (influenza virus [11]; Vero cells) was >10 µg/mL, the “EC50 Visual” value (vaccinia virus [12]) was >10 µg/mL and the “IC50 Visual” value (vaccinia virus [12]) was >10 µg/mL. The “EC50 Visual” value (west nile virus [13]) was 0.01 ng/mL, the “IC50 Visual” value (west nile virus [13]) was >10 µg/mL and the “EC50 Visual” value (dengue virus [14]) was 0.01 µg/mL. The “IC50 Visual” value (dengue virus [14]) was >10 µg/mL, the “EC50 Visual” value [15] was 0.01 µg/mL and the “IC50 Visual” value [15] was >10 µg/mL. For the same molecule, the “EC50 Visual” value (pichinde virus [16]) was >10 µg/mL, the “IC50 Visual” value (pichinde virus [16]) was >10 µg/mL and the “EC50 Visual” value (polio virus [17]) was >10 µg/mL. The “IC50 Visual” value (polio virus [17]) was >10 µg/mL, the “EC50 NR” value (adenovirus [18]) was >10 µg/mL and the “IC50 NR” value (adenovirus [18]) was >10 µg/mL. The “EC50 NR” value (parainfluenza virus [19]) was >10 µg/mL, the “IC50 NR” value (parainfluenza virus [19]) was >10 µg/mL and the “EC50 NR” value [20] was >10 µg/mL. The “IC50 NR” value [20] was >10 µg/mL, the “EC50 NR” value (rhino virus [21]; Rhino 2, KB cells) was >10 µg/mL and the “IC50 NR” value (rhino virus [21]; Rhino 2, KB cells) was >10 µg/mL. For the same molecule, the “EC50 NR” value (rhino virus [21]; Rhino 9, HeLa cells) was 1.726 µg/mL, the “IC50 NR” value (rhino virus [21]; Rhino 9, HeLa cells) was >10 µg/mL and the “EC50 NR” value (coxsackie virus [22]) was >10 µg/mL. The “IC50 NR” value (coxsackie virus [22]) was >10 µg/mL, the “EC50 NR” value (influenza virus [23]; [30]) was >10 µg/mL and the “IC50 NR” value (influenza virus [23]; [30]) was >10 µg/mL. The “EC50 NR” value (influenza virus [23]; Vero cells) was 0.25 µg/mL, the “IC50 NR” value (influenza virus [23]; Vero cells) was >10 µg/mL and the “EC50 NR” value (vaccinia virus [24]) was >10 µg/mL. The “IC50 NR” value (vaccinia virus [24]) was >10 µg/mL, the “EC50 NR” value (west nile virus [25]) was 0.1 ng/mL and the “IC50 NR” value (west nile virus [25]) was >10 µg/mL. For the same molecule, the “EC50 NR” value (dengue virus [26]) was 0.1 µg/mL, the “IC50 NR” value (dengue virus [26]) was >10 µg/mL and the “EC50 NR” value [27] was 0.035 µg/mL. For the same molecule, the “IC50 NR” value [27] was >10 µg/mL, the “EC50 NR” value (pichinde virus [28]) was >10 µg/mL and the “IC50 NR” value (pichinde virus [28]) was >10 µg/mL. For the same molecule, the “EC50 NR” value (polio virus [29]) was >1.672 µg/mL, the “IC50 NR” value (polio virus [29]) was >10 µg/mL and the TC50 (BCBL-1 cells) was > 10 µg/mL. The “OAS activity in the serum and plasma of mice” value (OAS) was “induced OAS activity”, the “TI (TC50/IC50)” value (HHV-8) was > 10 and the “IC50 HHV-8 viral replication” value (HHV-8; extracellular HHV-8 DNA) was 1 µg/mL.
